Measured values taken from IntAct's records for PubMed 25751138.

B1: DASH complex subunit DAM1 (Saccharomyces cerevisiae), P53267 (parent)
chain: MSEDKAKLGTTRSATEYRLSIGSAPTSRRSSMGESSSLMKFADQEGLTSSVGEYNENTIQQLLLPKIRELSDSIITLDSNFTRLNFIHESLADLNESLGSLLYGIMSNSWCVEFSQAPHDIQDDLIAIKQLKSLEDEKNNLVMELSNMERGIKRKKDEQGENDLAKASQNKQFNQPLFPSSQVRKYRSYDNRDKRKPSKIGNNLQVENEEDYEDDTSSEASFVLNPTNIGMSKSSQGHVTKTTRLNNNTNSKLRRKSILHTIRNSIASGADLPIENDNVVNLGDLHPNNRISLGSGAARVVNGPVTKNRNSMFSGRAERKPTESRHSVAKKTEKKINTRPPFR
B2: DASH complex subunit DAM1 (Saccharomyces cerevisiae), P53267 (parent)
chain: B1 chain
partner: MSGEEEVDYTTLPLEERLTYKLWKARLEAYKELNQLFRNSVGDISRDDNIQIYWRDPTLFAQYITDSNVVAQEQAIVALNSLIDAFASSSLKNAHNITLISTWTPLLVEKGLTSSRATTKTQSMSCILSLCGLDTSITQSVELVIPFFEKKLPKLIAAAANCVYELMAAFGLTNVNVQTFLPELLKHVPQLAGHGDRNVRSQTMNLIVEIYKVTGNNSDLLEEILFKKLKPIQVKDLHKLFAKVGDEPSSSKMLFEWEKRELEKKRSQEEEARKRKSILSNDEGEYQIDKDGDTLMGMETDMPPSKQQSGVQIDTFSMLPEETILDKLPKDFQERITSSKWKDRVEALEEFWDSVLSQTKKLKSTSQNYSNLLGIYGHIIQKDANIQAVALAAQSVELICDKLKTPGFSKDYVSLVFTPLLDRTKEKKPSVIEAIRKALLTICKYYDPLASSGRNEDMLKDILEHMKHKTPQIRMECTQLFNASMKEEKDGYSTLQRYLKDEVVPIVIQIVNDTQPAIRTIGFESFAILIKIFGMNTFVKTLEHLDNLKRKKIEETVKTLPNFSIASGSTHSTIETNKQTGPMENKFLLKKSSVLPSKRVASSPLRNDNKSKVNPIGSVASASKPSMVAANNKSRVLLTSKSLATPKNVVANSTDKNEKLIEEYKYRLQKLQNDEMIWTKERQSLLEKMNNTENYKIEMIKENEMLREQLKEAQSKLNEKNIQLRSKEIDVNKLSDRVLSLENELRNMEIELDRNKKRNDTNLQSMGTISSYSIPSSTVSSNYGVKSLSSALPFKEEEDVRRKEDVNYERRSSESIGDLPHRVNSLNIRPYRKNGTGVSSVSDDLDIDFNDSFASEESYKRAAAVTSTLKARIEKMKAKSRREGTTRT

Variants of: B1
Conditions: with ndc80_yeast NDC80, P40460
ndc80_yeast NDC80, P40460, sequence (P40460 whole entry): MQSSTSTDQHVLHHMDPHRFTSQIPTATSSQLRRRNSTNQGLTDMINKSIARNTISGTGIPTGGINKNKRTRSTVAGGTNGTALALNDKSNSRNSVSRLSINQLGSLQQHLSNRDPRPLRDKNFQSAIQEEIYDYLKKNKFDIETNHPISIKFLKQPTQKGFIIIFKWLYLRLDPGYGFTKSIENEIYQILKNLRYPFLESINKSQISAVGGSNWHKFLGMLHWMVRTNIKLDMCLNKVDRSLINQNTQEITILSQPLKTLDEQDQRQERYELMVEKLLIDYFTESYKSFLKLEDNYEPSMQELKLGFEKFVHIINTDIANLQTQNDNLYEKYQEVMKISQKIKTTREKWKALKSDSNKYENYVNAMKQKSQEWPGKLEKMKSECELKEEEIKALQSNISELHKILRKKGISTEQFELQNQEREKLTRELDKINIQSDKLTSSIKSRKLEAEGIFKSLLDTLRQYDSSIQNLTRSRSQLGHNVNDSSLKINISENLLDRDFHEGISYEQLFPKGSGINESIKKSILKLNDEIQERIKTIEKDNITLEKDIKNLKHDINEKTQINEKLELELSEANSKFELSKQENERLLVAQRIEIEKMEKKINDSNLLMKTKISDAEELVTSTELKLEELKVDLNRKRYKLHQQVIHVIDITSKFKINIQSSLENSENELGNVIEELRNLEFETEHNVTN

effect of a mutation on the interaction	Variant
decreasing interaction strength	MSEDKAKLGTTRSATEYRLSIGSAPTSRRSSMGESSSLMKFADQEGLTSSVGEYNENTIQQLLLPKIRELSDSIITLDSNFTRLNFIHESLADLNESLGSLLYGIMSNSWCVEFSQAPHDIQDDLIAIKQLKSLEDEKNNLVMELSNMERGIKRKKDEQGENDLAKASQNKQFNQPLFPSSQVRKYRSYDNRDKRKPSKIGNNLQVENEEDYEDDTSSEASFVLNPTNIGMSKSSQGHVTKTTRLNNNTNSKLRRKDILHTIRNDIASGADLPIENDNVVNLGDLHPNNRIDLGSGAARVVNGPVTKNRNSMFSGRAERKPTESRHDVAKKTEKKINTRPPFR [S257D;S265D;S292D;S327D]

Variants of: B2
Conditions: with stu2_yeast STU2, P46675

effect of a mutation on the interaction	Variant
disrupting interaction strength	MSEDKAKLGTTRSATEYRLSIGSAPTSRRSSMGESSSLMKFADQEGLTSSVGEYNENTIQQLLLPKIRELSDSIITLDSNFTRLNFIHESLADLNESLGSLLYGIMSNSWCVEFSQAPHDIQDDLIAIKQLKSLEDEKNNLVMELSNMERGIKRKKDEQGENDLAKASQNKQFNQPLFPSSQVRKYRSYDNRDKRKPSKIGNNLQVENEEDYEDDTSSEASFVLNPTNIGMSKSSQGHVTKTTRLNNNTNSKLRRKDILHTIRNDIASGADLPIENDNVVNLGDLHPNNRIDLGSGAARVVNGPVTKNRNSMFSGRAERKPTESRHDVAKKTEKKINTRPPFR [S257D;S265D;S292D;S327D]
